Results taken from patent US20220089704A1 (Biogen, published 2022).
Each block holds one binder with its values, some of them ahead of it.

Tests used:
Human alpha-synuclein [1] = biological target: T1, Human alpha-synuclein (human, UniProt P37840 1-140); experiment: direct binding ELISA, plates coated with human alpha-synuclein, anti-hIgG-HRP detection
Text: (§1) FIG. 46A is a graph showing alpha-synuclein direct binding ELISA. Human alpha-synuclein was coated on ELISA plates, treated with several dilutions of test reagents, and antibody binding at the indicated concentrations was detected with an HRP conjugated anti-hIgG secondary, measured by absorbance at 450 nm.

Human alpha-synuclein [2] = biological target: T1, Human alpha-synuclein; experiment: direct binding ELISA, plates coated with human alpha-synuclein; 12F4 hIgG1 as reference
Text: as §1

B1: FC5-H62(T33C/A104C)-12F4(LC) hIgG1 (bispecific antibody)
heavy: not shown
light: DVQLVESGGGLVQPGGSLRLSCAASGFKITHYCTGWFRQAPGKEREFVSRITWGGDNTFYSNSVKGRFTISRDNSKNTVYLQMNSLRAEDTAVYYCAAGSTSTCTPLRVDYWGQGTLVTVSSGGGGSSYELTQPPSVSVSPGQTARITCSGEALPMQFAHWYQQRPGKAPVIVVYKDSERPSGVPERFSGSSSGTTATLTITGVQAEDEADYYCQSPDSTNTYEVFGGGTKLTVLSQPKAAPSVTLFPPSSEELQANKATLVCLISDFYPGAVTVAWKADSSPVKAGVETTTPSKQSNNKYAASSYLSLTPEQWKSHRSYSCQVTHEGSTVEKTVAPTECS
notes: also called hFC5.2-12F4(LC) hIgG1; FC5-H62(T33C/A104C)-12F4 hIgG1
- binding result (Human alpha-synuclein [1]): binds

B5: 12F4 hIgG1 (antibody, V domains shown)
VH: EVQLVESGGGLVEPGGSLRLSCAVSGFDFEKAWMSWVRQAPGQGLQWVARIKSTADGGTTSYAAPVEGRFIISRDDSRNMLYLQMNSLKTEDTAVYYCTSAHWGQGTLVTVSS
VL: SYELTQPPSVSVSPGQTARITCSGEALPMQFAHWYQQRPGKAPVIVVYKDSERPSGVPERFSGSSSGTTATLTITGVQAEDEADYYCQSPDSTNTYEVFGGGTKLTVLS
notes: also called anti-alpha synuclein (12F4); 12F4 without FC5 attached
- binding result (Human alpha-synuclein [2]): binds

Now from value to binder:

- binding result (Human alpha-synuclein [1]): binds
B2: FC5-H62(T33C/A104C)-12F4(LC) hIgG2 SAA (bispecific antibody)
heavy: EVQLVESGGGLVEPGGSLRLSCAVSGFDFEKAWMSWVRQAPGQGLQWVARIKSTADGGTTSYAAPVEGRFIISRDDSRNMLYLQMNSLKTEDTAVYYCTSAHWGQGTLVTVSSASTKGPSVFPLAPCSRSTSESTAALGCLVKDYFPEPVTVSWNSGALTSGVHTFPAVLQSSGLYSLSSVVTVPSSNFGTQTYTCNVDHKPSNTKVDKTVERKSCVECPPCPAPPAAAPSVFLFPPKPKDTLMISRTPEVTCVVVDVSHEDPEVQFNWYVDGVEVHNAKTKPREEQFNSTFRVVSVLTVVHQDWLNGKEYKCKVSNKGLPAPIEKTISKTKGQPREPQVYTLPPSREEMTKNQVSLTCLVKGFYPSDIAVEWESNGQPENNYKTTPPMLDSDGSFFLYSKLTVDKSRWQQGNVFSCSVMHEALHNHYTQKSLSLSPG
light: B1 light

- binding result (Human alpha-synuclein [1]): binds
B3: FC5-H62(T33C/A104C)-12F4(LC) hIgG4P/G1 agly (bispecific antibody)
heavy: EVQLVESGGGLVEPGGSLRLSCAVSGFDFEKAWMSWVRQAPGQGLQWVARIKSTADGGTTSYAAPVEGRFIISRDDSRNMLYLQMNSLKTEDTAVYYCTSAHWGQGTLVTVSSASTKGPSVFPLAPCSRSTSESTAALGCLVKDYFPEPVTVSWNSGALTSGVHTFPAVLQSSGLYSLSSVVTVPSSSLGTKTYTCNVDHKPSNTKVDKRVESKYGPPCPPCPAPEFLGGPSVFLFPPKPKDTLMISRTPEVTCVVVDVSQEDPEVQFNWYVDGVEVHNAKTKPREEQFQSTYRVVSVLTVLHQDWLNGKEYKCKVSNKGLPSSIEKTISKAKGQPREPQVYTLPPSRDELTKNQVSLTCLVKGFYPSDIAVEWESNGQPENNYKTTPPVLDSDGSFFLYSKLTVDKSRWQQGNVFSCSVMHEALHNHYTQKSLSLSPG
light: B1 light

- binding result (Human alpha-synuclein [1]): binds
B4: FC5-H62(T33C/A104C)-12F4(LC) hIgG1 agly (N297Q) (bispecific antibody)
heavy: not shown
light: B1 light
notes: also called FC5-H62(T33C/A104C)-12F4 hIgG1 agly
